Consider one molecule from publication PMC2768988 (2009).

Broadly, the koff is a measure of how fast the partners let go of each other.

In the assay the target is T1, Flrt3 ectodomain (zebrafish, biotin on the enzymatically biotinylatable sequence (bait form)).
T1 chain: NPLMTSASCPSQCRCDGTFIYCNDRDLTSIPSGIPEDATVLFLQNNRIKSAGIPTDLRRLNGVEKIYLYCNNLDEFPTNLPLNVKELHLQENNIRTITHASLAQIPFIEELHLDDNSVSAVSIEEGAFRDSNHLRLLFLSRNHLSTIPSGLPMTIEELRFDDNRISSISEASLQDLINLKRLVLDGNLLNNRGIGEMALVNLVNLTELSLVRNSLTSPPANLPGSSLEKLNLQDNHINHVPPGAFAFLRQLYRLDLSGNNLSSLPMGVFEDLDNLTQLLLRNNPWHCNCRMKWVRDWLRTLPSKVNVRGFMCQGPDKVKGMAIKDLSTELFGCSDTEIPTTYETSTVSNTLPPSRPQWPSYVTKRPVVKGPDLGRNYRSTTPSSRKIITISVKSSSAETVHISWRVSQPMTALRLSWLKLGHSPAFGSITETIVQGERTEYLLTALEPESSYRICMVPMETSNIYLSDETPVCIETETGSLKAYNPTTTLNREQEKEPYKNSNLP
The assay is described as follows: SPR. (In SPR one partner is held on a chip, and binding of the other changes the refractive index at the surface.)

B1: Unc5b-Cd4d3+4-6His (domain or fragment)
chain: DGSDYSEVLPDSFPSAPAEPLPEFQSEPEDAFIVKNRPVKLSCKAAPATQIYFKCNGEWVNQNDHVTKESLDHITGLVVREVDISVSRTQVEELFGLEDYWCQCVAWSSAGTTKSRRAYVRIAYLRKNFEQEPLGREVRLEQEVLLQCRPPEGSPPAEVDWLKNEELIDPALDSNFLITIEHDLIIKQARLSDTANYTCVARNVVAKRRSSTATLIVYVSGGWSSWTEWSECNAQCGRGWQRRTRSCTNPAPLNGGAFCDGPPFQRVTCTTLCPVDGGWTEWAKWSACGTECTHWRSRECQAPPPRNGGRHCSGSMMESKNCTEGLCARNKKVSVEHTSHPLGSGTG
B1: the koff is 5.5 s⁻¹.
